Measured values as given in patent publication US20260193348A1 (ANTENGENE BIOLOGICS, published 2026).
Where a chain is given by its changes, count along the chain named. Numbers in names are those of the source.

B1: Bis-108+147-N31Y.L (bispecific antibody, V domains shown)
VH 1: EVQLVQSGAEVKKPGASVKVSCKASGYTFTSYVIHWVRQAPGQGLEWMGYFNPYNDGTKYNEEFKGRVTLTSDKSTSTAYMELRSLRSDDTAVYYCARGGVRRYFDVWGQGTTVTVSS
VL 1: DIQMTQSPSSLSASVGDRVTITCRASQDIGSNLNWLQQKPGKAIKRLIYATFGLDSGVPSRFSGSRSGTDFTLTISSLQPEDFATYYCQQYASFPYTFGGGTKVEIK
VH 2: EVQLVQSGAEVKKPGSSVKVSCKASGYTFTSYWMHWVRQAPGQCLEWMGNINPSSGATNYNEKFKSRVTLTVDKSTSTAYMELSSLRSEDTAVYYCARDRSSQYYFDYWGQGTTVTVSS
VL 2: DIVMTQSPDSLAVSLGERATINCKSSQSLLYSRSRKNYLAWYQQKPGQPPKLLIYWASTRESGVPDRFSGSGSGTDFTLTISSLQAEDVAVYYCTQSYTLRTFGCGTKVEIK
notes: Fab-scFv-Fab (2+1): first VH/VL = anti-GPRC5D Fabs, second VH/VL = anti-CD3 scFv
B2: Bis-108+147-N37K.L (bispecific antibody, V domains shown)
VH 1: B1 VH 1
VL 1: B1 VL 1
VH 2: B1 VH 2
VL 2: B1 VL 2 with Y31N, N37K
notes: as for B1
B3: Bis-108+147-S54R.H (bispecific antibody, V domains shown)
VH 1: B1 VH 1
VL 1: B1 VL 1
VH 2: B1 VH 2 with S54R
VL 2: B1 VL 2 with Y31N
notes: as for B1
B4: Bis-108+147-S32R.L (bispecific antibody, V domains shown)
VH 1: B1 VH 1
VL 1: B1 VL 1
VH 2: B1 VH 2
VL 2: B1 VL 2 with Y31N, S32R
notes: as for B1
B5: Bis-108+147-R35S.L (bispecific antibody, V domains shown)
VH 1: B1 VH 1
VL 1: B1 VL 1
VH 2: B1 VH 2
VL 2: B1 VL 2 with Y31N, R35S
notes: as for B1
B6: Bis-108+147-R100Q.H (bispecific antibody, V domains shown)
VH 1: B1 VH 1
VL 1: B1 VL 1
VH 2: B1 VH 2 with R100Q
VL 2: B1 VL 2 with Y31N
notes: as for B1
B7: Bis-108+147-S31R.H (bispecific antibody, V domains shown)
VH 1: B1 VH 1
VL 1: B1 VL 1
VH 2: B1 VH 2 with S31R
VL 2: B1 VL 2 with Y31N
notes: as for B1
B8: Bis-108+147-R35K.L (bispecific antibody, V domains shown)
VH 1: B1 VH 1
VL 1: B1 VL 1
VH 2: B1 VH 2
VL 2: B1 VL 2 with Y31N, R35K
notes: as for B1
B9: Bis-108+147-R33A.L (bispecific antibody, V domains shown)
VH 1: B1 VH 1
VL 1: B1 VL 1
VH 2: B1 VH 2
VL 2: B1 VL 2 with Y31N, R33A
notes: as for B1

Biological target: T1, GPRC5D on multiple myeloma cells (human, UniProt Q9NZD1 1-345)
T1 construct: whole, on cells; Endogenous GPRC5D on multiple myeloma cell lines; also called G-protein coupled receptor family C group 5 member D; MM.1S, MOLP-8, L363, RPMI8226 cells
T1 sequence (Q9NZD1 whole entry): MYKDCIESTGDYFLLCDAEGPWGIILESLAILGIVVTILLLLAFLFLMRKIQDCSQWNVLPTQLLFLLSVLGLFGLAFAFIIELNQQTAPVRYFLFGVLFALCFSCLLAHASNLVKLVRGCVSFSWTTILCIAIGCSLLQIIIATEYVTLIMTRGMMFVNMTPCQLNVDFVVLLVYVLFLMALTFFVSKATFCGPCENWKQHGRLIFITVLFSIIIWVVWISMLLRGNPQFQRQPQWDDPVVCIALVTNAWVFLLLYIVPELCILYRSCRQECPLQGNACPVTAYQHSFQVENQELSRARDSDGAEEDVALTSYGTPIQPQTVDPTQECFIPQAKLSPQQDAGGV
Assay: FACS on MM.1S cells

Binding result, binds:
B1
B2
B3
B4
B5
B6
B7
B8
B9

Biological target: T2, CD3 on T cells / Jurkat cells (human, UniProt P07766 23-207; P04234 22-171; P09693 23-182)
T2 construct: whole, on cells; Native CD3 complex on CD3+ T cells isolated from normal donors or on Jurkat cells; also called human CD3; CD3+ T cells
T2 sequence (P07766 23-207, chain 1 of 3): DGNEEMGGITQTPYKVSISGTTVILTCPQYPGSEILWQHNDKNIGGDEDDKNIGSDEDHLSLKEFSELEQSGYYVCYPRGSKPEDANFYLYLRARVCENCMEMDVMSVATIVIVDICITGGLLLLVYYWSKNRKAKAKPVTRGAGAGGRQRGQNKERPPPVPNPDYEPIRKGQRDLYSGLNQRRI
T2 sequence (P04234 22-171, chain 2 of 3): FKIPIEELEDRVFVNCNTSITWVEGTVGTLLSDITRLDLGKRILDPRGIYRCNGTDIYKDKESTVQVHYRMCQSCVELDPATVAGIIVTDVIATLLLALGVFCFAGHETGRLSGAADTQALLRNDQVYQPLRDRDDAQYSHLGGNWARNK
T2 sequence (P09693 23-182, chain 3 of 3): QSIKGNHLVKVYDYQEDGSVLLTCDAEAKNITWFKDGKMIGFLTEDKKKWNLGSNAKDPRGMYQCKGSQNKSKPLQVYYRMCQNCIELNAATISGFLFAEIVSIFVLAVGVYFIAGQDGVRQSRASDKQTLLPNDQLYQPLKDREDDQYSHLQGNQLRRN
Assay: FACS on Jurkat cells

Binding result, binds:
B1
B2
B3
B4
B5
B6
B7
B8
B9
